From patent US20250339570A1 come the findings set out here.

The test deals with CD46 (UniProt P15529). In words: magnetic bead radioligand binding assay; CD46 on Ni-NTA beads, 10 ng radioimmunoconjugate, bead activity/standard.
As to 225Ac-Macropa-PEG0-YS5 (antibody), the target binding fraction was over 75%. As for 225Ac-Macropa-PEG4-YS5 (antibody), the figure is over 75%; as for 225Ac-Macropa-PEG8-YS5 (antibody), over 75%.
